In assay [1] the target is T1, human calpain I (Homo sapiens, UniProt P07384).
T1 construct: purchased Calbiochem
T1 sequence (P07384 1-714): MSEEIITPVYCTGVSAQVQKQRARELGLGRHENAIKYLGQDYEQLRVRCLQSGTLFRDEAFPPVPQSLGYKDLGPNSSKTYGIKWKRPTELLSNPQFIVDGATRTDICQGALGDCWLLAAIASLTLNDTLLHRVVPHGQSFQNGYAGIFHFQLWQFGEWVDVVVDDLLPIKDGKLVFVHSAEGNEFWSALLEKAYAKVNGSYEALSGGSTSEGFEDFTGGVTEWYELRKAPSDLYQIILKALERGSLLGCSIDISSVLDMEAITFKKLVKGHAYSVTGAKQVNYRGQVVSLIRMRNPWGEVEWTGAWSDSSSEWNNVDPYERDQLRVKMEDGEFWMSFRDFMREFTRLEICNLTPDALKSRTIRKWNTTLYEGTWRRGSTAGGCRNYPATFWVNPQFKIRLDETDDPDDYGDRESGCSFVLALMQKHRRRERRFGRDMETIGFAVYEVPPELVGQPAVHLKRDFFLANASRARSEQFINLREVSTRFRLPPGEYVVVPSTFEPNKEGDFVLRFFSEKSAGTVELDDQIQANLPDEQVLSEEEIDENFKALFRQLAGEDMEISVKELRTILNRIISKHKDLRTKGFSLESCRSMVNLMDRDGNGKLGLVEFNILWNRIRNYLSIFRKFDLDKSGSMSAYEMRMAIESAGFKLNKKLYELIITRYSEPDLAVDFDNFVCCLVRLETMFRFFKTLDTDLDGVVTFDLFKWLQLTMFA
T1 sequence (P04632 1-268 partner): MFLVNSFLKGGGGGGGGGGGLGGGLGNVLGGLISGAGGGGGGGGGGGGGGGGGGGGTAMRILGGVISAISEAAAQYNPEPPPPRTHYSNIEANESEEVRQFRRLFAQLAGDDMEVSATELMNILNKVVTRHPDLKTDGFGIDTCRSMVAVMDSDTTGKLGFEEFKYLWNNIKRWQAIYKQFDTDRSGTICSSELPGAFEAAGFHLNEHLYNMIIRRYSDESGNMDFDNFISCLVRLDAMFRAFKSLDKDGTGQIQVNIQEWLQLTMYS
The assay can be described thus: In vitro calpain-mediated proteolysis reaction. The assay is classed as biochemical. Conditions: for JP2 degradation by calpain I: WT mouse heart lysates, 3 mM free Ca2+, Z-LLY-FMK 20 μM, EDTA 5 mM. As for the experimental part: Mouse and human heart tissues as well as HEK 293T cells (obtained from the ATCC and cultured according to the protocol of the manufacturer) overexpressing tagged JP2 were washed with PBS and homogenized in lysis buffer (20 mM Tris-HCl, 150 mM NaCl, 2 mM EDTA, and 1% Triton X-100), followed by sonication. Homogenates were centrifuged for 10 minutes at 14,000 rpm at 4° C. Protein content in the supernatant was determined using the BCA assay (Thermo Scientific). Cell extracts were diluted in ice-cold calpain reaction buffer (135 mM NaCl, 5 mM KCl, 1 mM MgCl2, 10 mM glucose, 10 mM Hepes (pH 7.25), 2 mM lactacystin, and 10 mM 2-mercaptoethanol) to a concentration of 4 mg protein/ml. Just prior to starting the protease reaction, CaCl2 was added to achieve a final concentration of 3 mM free Ca^2+ (in the presence of EDTA), as calculated by winmaxc32 (Stanford University). For some experiments, the free Ca^2+ concentration was adjusted to 500 μM, as calculated by winmaxc32. Purified human calpain I (Calbiochem) was added at a concentration of 1 mg of total protein/1 μg of calpain I. Reactions without Ca^2+ or without purified calpain I were used as controls. Reactions were incubated at 30° C. for the indicated time and stopped by adding EDTA to a final concentration of 10 mM and incubating for 5 minutes at 95° C. The reaction products were subjected to Western blotting.

Assay [2] has as its system JP2-KD cardiomyocytes. The assay can be described thus: Confocal Ca2+ imaging in JP2-KD cardiomyocytes after adenoviral expression. The assay is classed as cell-based, mouse. To be noted: 1-Hz field stimulation. From the text:
Specifically, conditional shJP2 mice (provided by Dr. Wehrens) (van Oort et al., 2011) were crossed with mice carrying the cardiac-specific α-myosin heavy chain promoter upstream of Cre (% MHC-Cre, also FVB-Tg(Myh6-cre)2182Mds/J, The Jackson Laboratory). The shJP2 mice were maintained on a C57BL/6 background for more than 10 generations. The αMHC-Cre mice were maintained on an FVB background. PCR was used to genotype the offspring. The near complete depletion of JP2 protein in JP2-KD (αMHC-Cre X shJP2) hearts has been reported recently (Chen et al., 2013). JP2-KD mice were sacrificed at 2 months of age for isolation and culture of ventricular cardiomyocytes as described below.
Genecarrior-1 (Epoch Lab) was used to transfect plasmids into HEK293T cells. Isolation and culture of cardiomyocytes were performed as described previously (Guo et al., 2012). […] Ca^2+ Imaging experiments were performed 40 hours after adenoviral infection.
Cells were loaded with Rhod-2AM at 37° C. for 20 minutes, followed by washing with Tyrode's solution at room temperature for 15 minutes before Ca^2+ imaging. Confocal images were acquired using a ×63, 1.3 numerical aperture oil immersion objective mounted on a Zeiss LSM 510 confocal microscope. Confocal line scanning was used to record Ca^2+ signals. Steady-state Ca^2+ transients were recorded in Tyrode's solution containing 1.8 mM Ca^2+ under field stimulation of 1 Hz. At least five steady-state transients for each cell were analyzed and averaged to represent Ca^2+ signals of the cell. Ca^2+ imaging data were analyzed by using a home-complied software, CaTeasy, which is coded in MATLAB 2013a (Mathworks). Briefly, the program normalizes Ca^2+ transient images on a column-by-column basis (512 columns/image). The characteristic parameters of normalized transients were detected automatically. The firing time of every scanning pixel was detected column by column on the basis of the maximum local variability of pixel intensity. The profile of the point-to-point firing time was indicated by a red line overlapping on the Ca^2+ image. Index of desynchronization, defined by the mean absolute deviation of firing time of each scanning pixel (with every 8 pixels binned), was used to evaluate the dyssynchrony of Ca^2+ transients. This automated software for calcium transient analysis is available upon request.

The test system of assay [3] is RyR2 and Cav1.2. The assay is described as follows: Coimmunoprecipitation with E-C coupling channels. The assay is classed as binding, mouse. Conditions: anti-HA immunoprecipitation. From the text:
FIGS. 5A-H. JP2 truncations are nonfunctional in regulating Ca^2+ transients. A) An antibody against the HA tag was used to reveal the localization of adenoviral expression of tagged full-length JP2 and truncations, as indicated, in adult wild-type cardiomyocytes. All the three version of JP2 can be localized in the striated pattern. B) Full-length JP2 and JP2(1-565) forms complexes with RyR2 and Cav1.2 In vivo. An antibody against HA was used for immunoprecipitation […]. The RyR2 and Cav1.2 that were pulled down were detected by Western blot analysis. […] IB, immunoblot. C) Adenovirus-mediated expression of full-length JP2, FLAG-JP2(1-565)-HA, and JP2(566-end)-HA in JP2-KD) cardiomyocytes. D) Representative steady-state Ca^2+ transients under 1-Hz field stimulation. The fluorescence intensity (F) of Ca^2+ imaging was normalized to the baseline (FO). The red lines overlapping on Ca^2+ imaging show the profile of the moment of Ca^2+ transient firing on the scanning line in a point-by-point way. A straighter line means better synchronization of the Ca^2+ transients. Note that expression of full-length JP2, but not JP2 truncations, improves the amplitude and synchronization of Ca^2+ transients. E-G) Summary of Ca^2+ transient amplitude, index of desynchronization (mean absolute deviation of firing time), and duration of 50% decay (T5) (n=68, 70, 70, and 52 for Ad-Empty, Ad-JP2, […], and Ad-JP2(566-end), respectively). Only full-length JP2 Improves the amplitude, synchronization, and decay of Ca^2+ transients. H) Summary of SR Ca^2+ content, which was assessed by caffeine-induced SR Ca^2+ release (n=17, 17, 17, and 12 for Ad-Empty, Ad-JP2, Ad-JP2(1-565), and Ad-JP2(566-end), respectively). **, p<0.01 versus indicated groups; N.S., not significant.
Cleavage at the primary calpain proteolysis site (Arg-565/Thr-566) splits apart the C-terminal SR-binding TM domain and N-terminal plasma membrane-binding MORN domains of JP2. […]

Assay [4] deals with TATA box DNA sequences. The assay can be described thus: Gel shift assay with TATA box sequences. The assay is classed as binding. Conditions: GST-purified protein; cMyc or CMV promoter sequences. From the text: FIGS. 11A-H. JP2NT is a TATA-box binding protein enriched at transcription start site (TSS) and interacts with basic transcription machinery. […] C) 293T cells were transfected with HA-tagged JP2NT, followed by crosslinking-reversal immunoprecipitation with anti-HA and immunoblotting with anti-polymerase II (Rpb1) or anti-TATA box binding protein (TBP). D-H) JP2NT binds to TATA box DNA sequences in vitro. D-E) Gel shift assays of GST-purified JP2NT binding to WT (D). or mutated TATA box-containing sequences (E) derived from the cMyc promoter. F) Summary of the results of gel shift assays with various of TATA box variants or mutants. Mutation of the core TATA sequences abolished the interaction with GST-JP2NT. G) Deletion of the ARR, but not the N-terminal MORN domains, eliminated JP2NT binding to the TATA box sequence. H) The peptide JP2^331-405 containing the ARR specifically binds to WT TATA box sequence.
TBP specifically binds to TATA boxes, eukaryotic core cis-regulatory elements localized at transcription start site. […] This interaction was abrogated by mutation of the TATA box elements (FIGS. 11E&G and 17B). It was concluded that JP2NT is a DNA binding protein, binding to consensus TATA box represented as TATAA(A/T) or TATATA (FIG. 11F).
(A gel shift assay detects complexes by their altered migration in electrophoresis.)

The subject of assay [5] is MEF2C Response Element (MRE) from the desmin enhancer. The assay can be described thus: Gel shift assay with MEF2 response element. The assay is classed as binding. Conditions: purified protein. An excerpt:
FIGS. 12A-E. JP2NT represses MEF2-mediated transcription by competing for the MEF2 Response Element (MRE). A) Enrichment of MEF2 binding motifs in ChIP-seq dataset. B) Gel shift assay of JP2NT binding to a desmin promoter-derived DNA sequence containing a WT or mutated MRE in vitro. C) Co-immunoprecipitation of HA-tagged JP2NT binding to MEF2C or Histone H3. D) & E) MEF2 activity assays in 293T cells co-transfected with luciferase under the control of an MRE, MEF2C and WT JP2NT (D) or a mutant lacking the ARR (E, JP2NT^ΔARR). n≥3 independent batches of cells; in each batch of experiments, 3 replicates were performed for each transfection; **p<0.01 vs. Ad-Empty.
The MEF2 family, master regulators of hypertrophic genes in cardiomyocytes, binds to the A/T enriched consensus sequence (C/TTA(A/T)4TA G/A), which shares the same core sequence with TATA box. Thus, it was hypothesized that JP2NT directly interacts with MEF2 binding sites.

Peptide text beside a SMILES is read from it. * marks the point of attachment. Cbz = O=C(OCc1ccccc1)*; CH2F = FC*

As for `O=C(O)CN(CCN(CC(=O)O)CC(=O)O)CC(=O)O` [EDTA], in assay [1], the “JP2 degradation by calpain I” value is “inhibited JP2 degradation”. On to `CC(C)CC(NC(=O)OCc1ccccc1)C(=O)NC(CC(C)C)C(=O)NC(Cc1ccc(O)cc1)C(=O)CF` (stereo not drawn) [Z-LLY-FMK] (Cbz-Leu-Leu-Tyr-CH2F; configuration not given here), for which the “JP2 degradation by calpain I” value in assay [1] is recorded as “inhibited JP2 degradation”. Besides, in assay [1] (lysates of 293T cells overexpressing FLAG/HA-tagged JP2, 3 mM and 500 μM Ca2+), the “JP2 cleavage products and full-length JP2” value is “substantial reduction in cleavage products and preservation of full-length JP2”.

B1: JP2(566-end): C-terminal JP2 truncation, tagged with HA at the C terminus (protein)
chain: TGPPEPPPLEDEQEPEPEPEPEVRRSDSAPPSPVSATVPEEEPPAPRSPVPAKQATLEPKPIVPKAEPKAKARKTEARGLSKAGAKKKGRKEVAQAKEAEVEVEEVPNTVLICMVILLNIGLAILFVHLLTYPYDVPDYA
Take B1: the “restoration of Ca2+ transients” value in assay [2] is on record as “failed to restore”. For the same molecule, the “interaction with RyR2 and Cav1.2” value in assay [3] is on record as “not”.

B2: GST-JP2^331-405: purified peptide containing the ARR; DNA binding domain of JP2NT (protein, UniProt Q9ET78 331-405, looked up, fragment)
chain: EEGKYRHNVLVKGTKRRVLPLKSSKVRQKVEHGVEGAQRAAAIARQKAEIAASRTSHAKAKAEAAEQAALAANQE
modifications: GST tag
For the molecule B2, in assay [4], the “binding to TATA box” value is reported as “specifically bound to the consensus but not mutant TATA box”. For the same molecule, the “interaction with MEF2C Response Element (MRE)” value in assay [5] is listed as “interacts”.

For the origin of these results see patent US11351270B2, “Junctophilin-2 fragments and uses therefor” (University of Iowa Research Foundation, priority 2016, dated 2022).
